Measured values reported in patent publication US20200078441A1 (TAIPEI VETERANS GENERAL HOSPITAL, published 2020).

target: T1, recombinant His-tagged AGO2 protein (human Argonaute 2, baculovirus-expressed) (human, UniProt Q9UKV8 1-859); assay: PepSpot peptide array incubated with recombinant His-tagged AGO2 (2 µg), detected with anti-His-HRP
T1 construct: Expressed in High Five insect cells and purified on nickel resin; also called His-AGO2; HisAGO2
T1 sequence (Q9UKV8 other isoform, or with tags, fused parts or gaps limits assumed): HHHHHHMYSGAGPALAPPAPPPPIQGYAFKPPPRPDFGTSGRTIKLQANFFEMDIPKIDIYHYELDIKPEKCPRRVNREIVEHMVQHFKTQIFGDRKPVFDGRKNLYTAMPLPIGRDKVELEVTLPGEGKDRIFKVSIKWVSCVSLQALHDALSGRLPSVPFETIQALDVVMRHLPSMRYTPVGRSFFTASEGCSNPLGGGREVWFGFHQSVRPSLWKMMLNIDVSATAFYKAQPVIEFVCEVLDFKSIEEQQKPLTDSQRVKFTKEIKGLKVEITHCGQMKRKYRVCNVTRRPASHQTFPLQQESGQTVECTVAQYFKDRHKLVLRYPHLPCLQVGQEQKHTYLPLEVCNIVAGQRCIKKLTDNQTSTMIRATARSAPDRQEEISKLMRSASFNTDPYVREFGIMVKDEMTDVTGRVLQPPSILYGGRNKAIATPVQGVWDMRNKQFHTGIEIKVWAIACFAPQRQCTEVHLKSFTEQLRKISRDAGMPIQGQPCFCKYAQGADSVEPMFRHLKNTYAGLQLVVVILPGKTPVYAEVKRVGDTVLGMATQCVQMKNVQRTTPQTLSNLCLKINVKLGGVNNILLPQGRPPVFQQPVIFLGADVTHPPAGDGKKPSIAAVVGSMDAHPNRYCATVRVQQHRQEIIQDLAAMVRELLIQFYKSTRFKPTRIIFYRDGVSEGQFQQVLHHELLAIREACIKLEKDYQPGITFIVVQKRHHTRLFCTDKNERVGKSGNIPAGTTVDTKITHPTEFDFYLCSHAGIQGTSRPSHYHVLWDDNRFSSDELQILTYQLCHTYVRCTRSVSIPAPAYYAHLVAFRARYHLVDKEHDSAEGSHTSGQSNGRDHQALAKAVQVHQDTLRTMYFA
Procedure: The association rate constant (Kₐ), dissociation rate constant (Kd), and equilibrium dissociation constant (KD) were calculated and presented in the chart (bottom).

binding result	Binder
no binding	TSPGPMAELYGAANQ (15-mer of the MSI1 C-terminus spotted on the PepSpot membrane; also called Index 21) [PepSpot array peptide 21]
no binding	ELYGAANQDSGVSSY (15-mer of the MSI1 C-terminus spotted on the PepSpot membrane; also called Index 22) [PepSpot array peptide 22]
no binding	SAPVLPELTAIPLTA (15-mer of the MSI1 C-terminus spotted on the PepSpot membrane; also called Index 13) [PepSpot array peptide 13]
no binding	AYGPMAAAAAAAAVV (15-mer of the MSI1 C-terminus spotted on the PepSpot membrane; also called Index 15) [PepSpot array peptide 15]
no binding	LTAIPLTAYGPMAAA (15-mer of the MSI1 C-terminus spotted on the PepSpot membrane; also called Index 14) [PepSpot array peptide 14]
no binding	QDSGVSSYISAASPA (15-mer of the MSI1 C-terminus spotted on the PepSpot membrane; also called Index 23) [PepSpot array peptide 23]
no binding	AAAAAAVVRGTGSHP (15-mer of the MSI1 C-terminus spotted on the PepSpot membrane; also called Index 16) [PepSpot array peptide 16]
no binding	VERTPLPSAPVLPEL (15-mer of the MSI1 C-terminus spotted on the PepSpot membrane; also called Index 12) [PepSpot array peptide 12]
